This data set in a line: soluble on expression in E. coli; label from the status in PepcDB or PDB records.
For the sequence “MGSDKIHHHHHHMGLPMWANGDWRGSLYARHAPSSGMLHDYGAVFGSVEGNTTFYSGPPKADTVAQWARQAPADFRFCFKLPAQLTHDKRLVGIEDDFRTFCDALAPLHDRLGPTMVQLPRDFGARELPALAAFLEKWPSDMPCAVEVRHSEFFHKGDAEQQLNRLLITLGVDRVMLDVRPLFATPAGDDARLIKAQSEKPKRPLHVISTGRMPIVRFIGHCDMEINERLFAPWCERLALWIKQGKTPFLFVHTPDNRQAPQLARRFHARLSRCVTLPPLGDFPGERQSALF”, the “soluble on expression in E. coli” value was “not soluble”.

As for “MAALIDTGIFFGFYSLKDVHHMDSVAIVVHAVEGKWGRLFVTNHILDETLTLLKYKKLPADKFLEGFVESGVLNIIYTDDEVERKALEVFKARVYEKGFSYTDAISEVVAEELKLKLISYDSRFSLPTIGRDYWKSLDESERKRISAILREKGIDG”, the “soluble on expression in E. coli” value was “soluble”.

As for “RGVLEGTVRIGALPLSRTRLLPSAIAAFLAQHPGITLMTNESPYESLVADMRAGNIDFIIGALRQDEDLPDLCSEALFEEDMLILLRNNHPLLRHPDPRSQLATAQWVLPRANAPARNLLDKAFVTLGLPLPQPTVETGDAAMVR”, the “soluble on expression in E. coli” value is on record as “not soluble”.

“MGSSHHHHHHSSGRENLYFQGHMKPDAHQVKQFLLNLQDTICQQLTAVDGAEFVEDSWQREAGGGGRSRVLRNGGVFEQAGVNFSHVHGEAMPASATAHRPELAGRSFEAMGVSLVVHPHNPYVPTSHANVRFFIAEKPGADPVWWFGGGFDLTPFYGFEEDAIHWHRTARDLCLPFGEDVYPRYKKWCDEYFYLKHRNEQRGIGGLFFDDLNTPDFDRCFAFMQAVGKGYTDAYLPIVERRKAMAYGERERNFQLYRRGRYVEFNLVWDRGTLFGLQTGGRTESILMSMPPLVRWEYDYQPKDGSPEAALSEFIKVRDWV”: the “soluble on expression in E. coli” value is given as “soluble”.

With “MAHHHHHHMPKEVQEKDEFFYFFNHFCFYIINETKQYALSYKMNFAFYLPYGSLGVDVLKNVFDYLHYLDVPTILDIKMNDIGNTVKHYSKFIFHYLRSDSCTANIYMGTHMLRDICLDEECKRHYSTFVLIKTTNPDSHIFQNRLSLDGKEAYVVIADEAQKMAKQLHLEENGEFVGFVVGANCYDEMKKIRELFPDCYILAPGVGAQKGDLRKTLCNGYSKNYERLLINVGRAITKSGNPQQAAREYYHQIKEILAEL”, the “soluble on expression in E. coli” value is “not soluble”.

With “MNQKDVKLTVFSSDEKSFMVTATLVEKAGHAFLINSKFTQSDSKEIVEYLKKNNLSLDKIFIIHGDPDYYFGLESIKAVYPEAIAYATESTVEHIVHSVLGKLKVWKDALGENAPSNVVLPQVFKEKAIDFQGLTFELVGLEHYRTSLFNKELKVLIGGIDVFNEIHVFLADTSSKAAMEAWIENLKVLQALHADIIVPSHGSIEKSLNNQALTATMDYLRTAVQASEESGTSKDFVAKLEAAYPDYANKGVLELSAKVVTKELEHHHHHH”, the “soluble on expression in E. coli” value is on record as “not soluble”.

Turning to “MEDMYDSFAALSASESEYRIIYEEKNGSELIVLGPHGGRIEPGVSELVRAFSDRCSIYLFEGLKQRNNRSLHLTSIRFDEPLALEKVNDHHYALAFHGYYDPKIPHTLVGGADRKKAKLICERLNEAGFSAELTNEKDRLAGVHPNNIVNRTKREMGLQLEVSTAQRNALFRNFGCRDKSYIQNDLFDRYVEAVKLGFYTLEHHHHHH”, the “soluble on expression in E. coli” value is “soluble”.

Take “MPTNTFFHLPEEKQQRLLDAAQIEFSRHSLQEASIANIVKLAGIPRGSFYQYFENKEDLYFYYFATLRKNSERDLEKQIIAENGDLIEAMDVYFSKMIVEVLTGENASFYRNLFVNMDYRASRRVTDNLATGEEEKNRKQHCHKHRGRKGHAAYAEHLYQIIDHSKLTIETPKEFTWFMQTAMHAVFSTIVDGYRQQRENTAYDSTEAVKQLKMKLSWLKNGAYK”: the “soluble on expression in E. coli” value is recorded as “not soluble”.

On to “GPGSMNRAESSANALGEEFVKNMNTALDIVESLVAKGEAQFAILASAKSTFCVGADIDQMYTVTDPAVAVQVPTVGHKLFNRIEQEKFPIVAAINGLALGGGFEMSLACHQRLMASTAKVGFPECLLGLLPGGGGTVRTQRLCGLTKTVQWIMTSKQIKPQEAKSAGACDVIIPADDRWNGEHRFYEGVRKWAGQYLSNKPARLSKRKNISLMDQVLENTTFGRRKVADETIKMLNKKTRGKYIAQYKALECIMYSATHSNQQGFDKECRGFAELLCSPEAKNQMSLYFLQEGMKKSADKTGVPKDKVMPVNRVGVIGAGVMGSGIVHYFAKNNIPVAVKDLTEESVKQGITNVRAEFERAVRRKRMVTAELDGKMALVTGGTTNEVFRDADVIVEAAVEVMDIKKKVIQQLEKDGILHSKSLFATNTSSLSLTEMQTVAKCPHNIVGMHFFNPVSKMPLVEVIKGKSTSTEAAAAIFNLALKTGKIPIIVNDGPGFLVNRILGVYMAEAGRLAVDERCHPACVDEAILAFGMPMGPFRLLDEVGLDVACHVGPVLANGLKSDRFSVSATISQMVADGYLGRKNRKGFYTYAAEGKEAGLNSAVLQKYLGEELSASISETEIVDRCVLLMVNEATRILDEGIAMSPEDVDTGMVWGTGFPPFRGGLLQYADHRGIANVVAALEQLQRKTKRDYFAPTETLKKMAIEGKRFFPTRPYVPYQERHGYPKVTY”, for which the “soluble on expression in E. coli” value was “not soluble”.

With “MGSDKIHHHHHHMCASVLSRCGVALSQIQPIRCHLCQQTPCLTQCAEHNDTLNQHAAEYVKLVLAIGHHEPLYVDAYYGPAQWQAEASMLPLPELASRCASLVNQLANAGKDLSCQFLRDRHGFLSKQLGAVAAYLKRLMGQEFSFDVESRLLYDTQAPKLNLSDFSEVLARIDSLLPGEGSLTKRFDTYRSQFIVPADRVPQVFTAAVEQARLLTKRHLALPEGEQFRVEFVKDQIWTAYNWYQGDYASLIQLNQDHPLHLDRALELASHEGYPGHHVFNLLQEHELVKGLGWWEYAIYPLYSPISFLSEGSANYGLSLLMTKEERIDFEQRVLMPMAGIAGDLQHYHEVMVTYKALANLDTLVCRQLIDGEIQADEAARLLVEFALYTPEKAAQRVRFYQANRSYVLNYHHGEASVGEYVTNQVRDNAQAWEVFAALLARPRAASGIIR”, the “soluble on expression in E. coli” value is “not soluble”.

With “MIRVIEKGDKVSLPFSRGILTRSITSVGIDVDLAYSIAIEVQEELVKKGKTIVTKDEIRKLTYQKLIEKGFKEEAKRYIFWRRFRKMKVPLIILLGGPTGVGKSTIATELAFRLGIRSVIGTDSIREVLRKIITPELLPTIHTSTFLAWKELKGTVTDSPIVAGFESQVSAVTVGINAIIERAVREGLNAIIEGIHVVPGFVKVEGEMTFMYMLIARSREDLEARFYERTRYSKRPADYYISHLDEILEIQDYLIRRAKKFNVPVIENVELEETVSKIMEDIMQKTIEIMKGKGLDLLEEP”, the “soluble on expression in E. coli” value is “soluble”.

For the sequence “MPSDIPKTRLETEGTTQHTSPLRATCHRVFSLNAGRKAGEQYHLFCTSKSDNSTCLDGPARVVLRDILDNLYNRISSMPRANEIKKGMVLNYNGKLLIVKDIDIQSPTARGAATLYKMRFSDVRTGLKVEERFKGDDIVDTVTLSRRGVDFSYVDGNEYVFMDKEDYTPYTFTKDQIEEELLFMPEGGMPDMQVLTWDGQLLALELPQTVDLEIVETAPGIKGASASARNKPATLSTGLVIQVPEYLSAGEKIRIHIEERRYMGRAD”, the “soluble on expression in E. coli” value is recorded as “not soluble”.

As for “MSGSVPFIRRLAVIGVGLIGGSLARALRTAGAVGEIIGIDRDEANLRQAAELGVVDRAAATVAEGVAGADMVFLSVPVRAMAGVVREIAPHLAAGCIVTDGGSVKAEVVAACDPLMPAGTCFVGGHPIAGTEHSGVGASFATLYQGKRCILTPAATTDRDALATVARMWEAAGSEVVLMDPEKHDRVVAAISHLPHMVAYALVNAVEGYDRFEESILRYSAGGFRDFTRIASSDPAMWRDIALMNREGVLEMMDHFAAYFGQLRSLVAAGDAEGLERFFRDSKESRDAILLEHHHHHH”, the “soluble on expression in E. coli” value is recorded as “soluble”.

As to “MLSRSAKPVAPNSPLMALLPYSFNRPINVLVMGLDQSETGEQAEKFDTRSDTLLLLRFDPLEGTTSLLSIPRDTQVAIPGYGTTKINAANVFGGPALAADVVSRTLNDVPIDRYLRIDTTAFKELVDLVGGVEVYVPKPMRYTDNTQKLYIDLPAGRQTLNGDQAEQFARFRYDELGDIGRVQRQQMLLRALREKLANPLILTKAPDLVKVLQKYVDTNLSFEELMALVSIGLQQDLANIRMVMLPGRPIMQDDVSYWRLDEGARDRLVSDFFNQISIQPIDRLAFEDLRVAIQDSSGKPEAAQALAESLAKLGIRRVYIIEDWPEPLEKTQIIAQRGDLIQAEGLQQQLNLGEVRASSDGDIGSDLTIRIGQDWQPTPSPKPLEHHHHHH”, the “soluble on expression in E. coli” value was “soluble”.

“MGSDKIHHHHHHMEELLERVFSFSDVDKLIDFISYELQKPVILESADFFLLAYNSYYINHFDSANQQTIFSKKCPVQIFERFLKDGIIEKLKTEPEPFRVNKIESIGLNQRVVVSAKHKGEVMGYIWIQELDQNLTDEELDFLYETSFHVGKIIYKTNKLKQEKEEKAEDLIKRAIYQQFTSEKELRREAERINTVLPSMFSVVILHAANGDGEAVEDLKENIRSYLNLRDKVSHVLTIESNIVIVVASFSQKSSVSSAASEFINKLLTHFHFQKIPTPIYIGIGNEYNHLLKLGKSYTEALEVIKAAEITGNQENIPYEYAKLGIYRYLESIEQKNEFLEYENKDLALLKAKDEESSTELLKTLEVYLLNNCKTKPAAEQLFIHQNTLNYRIKQITEMTSIDLSDFRTRCQLYLDLMLMKKK”: the “soluble on expression in E. coli” value is listed as “not soluble”.

As for “MGSDKIHHHHHHMTDFSQLPNAAGVGYKPQHFQNIIDGSGAVDWLEIHAENYMGDGGRPLAQLRHLAERFPISVHGVGLSIGGEGPLDPEHLARLKHLVDWLKPASFSEHLAWSTHDTHFYNDLLPLPYTDATLARICDHIDMVQTLLGRRMLLENPSSYLAFAESTWEEPAFLHEIAKRTGCGLLLDVNNVFVSATNLGYRPQDYIDAYPLDLVGEIHLGGHDEDEDDHGRPLLIDSHGAEVVDPVWSLLSYTLTRSGPKPTLVEWDTDVPEWSVLEAEAARAANALRTAKVAA”, the “soluble on expression in E. coli” value was “not soluble”.

As to “MIDWDDLECRVAREESRHQAGIGTCSLALQIGFFFDGLKRNINVDEESQRLTNVGRLFRAHSFEIKASLTSAYSSAKIYVPGLGTLLDDTPSERLDSILDARQQALPEDYADALVEQGKETAVDTVKGVFKEDWSQVLSNKLGDLVTMKSGFDATVSAAKKAATRALLEATEPIRDNPIVAELLMTGVDARVDLAKNKFKESIVLSKKENQLPIKLVQISVFGADLGAALARRFIDELLESVCTKVGNEYRYEDSKVEVIFAGLFDCTRRSSMDMGDTVATISDGAGLVARHPVVGLITTAFGAKVITFDKPLHPAVKKALHLIAAHERREYRPLLPLGPLRSGWREVLCPGISEDVTGGLLPDEQRPSAELCRVPLRQMYETARRAQVPFPNFSILDAKNPRVAQYFIMQDSRLGYSAKKYSEYYSKWVGKMNPTPEAFELHMIHYCFWLGEKLHDYKILRQNVSGSERDKLNAQWGWLIQVGRDAENVLRSRGLSRQMYRGADLVKFFNGIKRVPREADIFFNYFMHDFTSEELKFATLNEQANTMLRNNNFFVPRGIEILAVDDEAAALEHHHHHH”, the “soluble on expression in E. coli” value was “soluble”.

As for “MKLVILLSFVATVAVFAAPSAPAGLEEKLRALQEQLYSLEKENGVDVKQKEQPAAADTFLGFVPQKRMVAWQPMKRSMINEDSRAPLLHAIEARLAEVLRAGERLGVNPEEVLADLRARNQFQ”, the “soluble on expression in E. coli” value was “not soluble”.

With “MAHHHHHHMGLKFYVLVFLILCLKNVVKGDKCETEFSKLYPESNSLTGLIYAHTANVHKLSMWVYFIYNHFSSADELIKYLEKTNINTLENSDHTCFARAVTLYLFYYYLKDIKSMLSTDDYQSFFKNKFKDINPLFINDFILILNDKKFMENLDLYIMKESEREHLVIKKNPFLRVLNKASTTTHATYKSNPYFIVGSRVHTPYKDYLGDFNKYTEISVLNYVRDYNFLIYAGSRENYYNSDIAGPARSVNNVISKNKTLGLRKRSSSLALVGTNNNDPIFAYCEKDNKSEYYGTPDDLITSFFSIIKTKMLNSHKTFLRQFDYALFHKTYSIPNLKGFRFLKHLFQKKNLVNFVGMYENHVSTEINFLAEDFVELFDVTMDCYSRQYSNRAAENFKAIRELNVL”, the “soluble on expression in E. coli” value is on record as “not soluble”.

For the origin of these results see the DeepSol protein solubility set.
